The target of the data set is T7-RelA, Q04206.
Sequence of T7-RelA, Q04206 (Q04206 whole entry): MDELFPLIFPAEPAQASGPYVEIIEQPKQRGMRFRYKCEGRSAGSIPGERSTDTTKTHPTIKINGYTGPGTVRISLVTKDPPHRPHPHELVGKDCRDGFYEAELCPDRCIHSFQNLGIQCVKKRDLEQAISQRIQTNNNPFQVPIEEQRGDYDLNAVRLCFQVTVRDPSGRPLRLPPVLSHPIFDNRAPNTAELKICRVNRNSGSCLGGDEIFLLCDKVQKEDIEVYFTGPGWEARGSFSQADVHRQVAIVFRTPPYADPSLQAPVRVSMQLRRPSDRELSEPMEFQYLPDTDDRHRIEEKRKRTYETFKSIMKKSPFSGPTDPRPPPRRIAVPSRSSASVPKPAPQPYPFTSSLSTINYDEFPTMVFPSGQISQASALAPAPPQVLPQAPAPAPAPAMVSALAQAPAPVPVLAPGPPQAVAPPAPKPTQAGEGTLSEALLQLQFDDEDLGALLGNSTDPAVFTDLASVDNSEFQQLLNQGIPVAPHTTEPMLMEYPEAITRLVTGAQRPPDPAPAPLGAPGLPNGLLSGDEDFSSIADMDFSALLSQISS

B1: P/CAF (protein)
chain: MSEAGGAGPGGCGAGAGAGAGPGALPPQPAALPPAPPQGSPCAAAAGGSGACGPATAVAAAGTAEGPGGGGSARIAVKKAQLRSAPRAKKLEKLGVYSACKAEESCKCNGWKNPNPSPTPPRADLQQIIVSLTESCRSCSHALAAHVSHLENVSEEEMNRLLGIVLDVEYLFTCVHKEEDADTKQVYFYLFKLLRKSILQRGKPVVEGSLEKKPPFEKPSIEQGVNNFVQYKFSHLPAKERQTIVELAKMFLNRINYWHLEAPSQRRLRSPNDDISGYKENYTRWLCYCNVPQFCDSLPRYETTQVFGRTLLRSVFTVMRRQLLEQARQEKDKLPLEKRTLILTHFPKFLSMLEEEVYSQNSPIWDQDFLSASSRTSQLGIQTVINPPPVAGTISYNSTSSSLEQPNAGSSSPACKASSGLEANPGEKRKMTDSHVLEEAKKPRVMGDIPMELINEVMSTITDPAAMLGPETNFLSAHSARDEAARLEERRGVIEFHVVGNSLNQKPNKKILMWLVGLQNVFSHQLPRMPKEYITRLVFDPKHKTLALIKDGRVIGGICFRMFPSQGFTEIVFCAVTSNEQVKGYGTHLMNHLKEYHIKHDILNFLTYADEYAIGYFKKQGFSKEIKIPKTKYVGYIKDYEGATLMGCELNPRIPYTEFSVIIKKQKEIIKKLIERKQAQIRKVYPGLSCFKDGVRQIPIESIPGIRETGWKPSGKEKSKEPRDPDQLYSTLKSILQQVKSHQSAWPFMEPVKRTEAPGYYEVIRFPMDLKTMSERLKNRYYVSKKLFMADLQRVFTNCKEYNPPESEYYKCANILEKFFFSKIKEAGLIDK
On to B1, for which the “acetylation of T7-RelA (anti-T7 immunoprecipitation, anti-acetylated lysine blot)” value was “P/CAF failed to mediate this response”.

The values above are taken from patent US7081343.
